Experimental data as given in PMC6838055, “Effective genome editing and identification of a regiospecific gallic acid 4-O-glycosyltransferase in pomegranate (Punica granatum L.)” (Horticulture Research, 2019).

Substrate: O=C(O)c1cc(O)c(O)c(O)c1
Experiment: HPLC product assay, steady-state kinetics
Assay type: biochemical, Punica granatum
Conditions: UDP-glucose co-substrate (0.6 mM in standard assay), 50 mM MES pH 5.5, 3 mM 2-mercaptoethanol, 30 °C, gallic acid 30-500 μM

B1: PgUGT72BD1 (Punica granatum) (protein)
chain: MAQVSTKPHVALFASPGIGHLIPVLQLGERFVSRHNFVVTVFVVVTDAATAESQLKQQSSYKNLLNVVLLPPVDLTSLTNKPLAILSQLVLIVRQSLPDLRSAIASMKSRPTALIVDLFGTEAFAIADEFHMLKYEFFTTNAWFLALTLYAPHVDREHEDDHILRHMPLHIPGCASILYEDTVDVYTDRNDKLLHDDYVRIGRRLAEADGILINTWESLEPKTLQALRDPKAFGRFSQVRILPIGPLVSGFQSFGSSQPKDDILQWLDDQPTESVLYVSFGSGGTLSADQLTELAWGLEQSQHRFIWVVRPPQENSACGAYFEQAKRADGTPEYLPDGFVTRTQKLGLVVPMWAPQREILAHPSIGGFLSHCGWNSTLESLINGVPLIAWPLYAEQTMNATMLTDQLGIAARSRELMPNGVLGRHEIEKMVRTVMNKEDAKGETIRARSQDLKRTALLAVAEGGSSYAALSQVAQECKIGLVGLKQRARGA
notes: codon-optimized ORF in pET28a, His-tagged, E. coli BL21(DE3), Ni-NTA purified; no signal peptide detected
Km: 190 ± 70 µM | kcat: (2.83 ± 0.5) × 10^−3 s^−1
